# Patent US20140271457A1 (AbbVie / Abbott, published 2014)
# Target: Recombinant Human TNF-α/TNFSF1A (human, UniProt P01375 77-233)
# Assay: cell-based or functional assay
# Chain of Recombinant Human TNF-α/TNFSF1A (P01375 77-233 limits assumed): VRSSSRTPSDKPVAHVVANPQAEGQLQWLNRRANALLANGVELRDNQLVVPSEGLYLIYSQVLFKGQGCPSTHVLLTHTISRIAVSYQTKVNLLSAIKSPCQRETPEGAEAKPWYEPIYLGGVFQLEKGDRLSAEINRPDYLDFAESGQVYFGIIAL
Binder,C-Terminal VD huTNFα Neutralization Assay IC50 [nM],N-Terminal VD huTNFα Neutralization Assay IC50 [nM]
"DVD3102 (bispecific antibody, IgG1) VH: EVQLVQSGAEVKKPGASVKVSCKASGYTFTTYGVSWVRQAPGQGLEWMGEIYPGNYNTYYNEKFRGRVTMTTDTSTSTAYMELRSLRSDDTAVYYCARWRTSYFSDYGYFDYWGQGTTVTVSSASTKGPSVFPLAPEVQLVESGGGLVQPGGSLRLSCAASGFTFSNYGVEWVRQAPGKGLEWVSGIWADGSTHYADTVKSRFTISRDNSKNTLYLQMNSLRAEDTAVYYCAREWQHGPVAYWGQGTLVTVSS VL: DVVMTQSPLSLPVTLGQPASISCRSSQSLVHSHGNTYLHWYQQRPGQSPRLLIYTVSNRFSGVPDRFSGSGSGTDFTLKISRVEAEDVGVYYCSQSTHVPYTFGGGTKVEIKRTVAAPDIQMTQSPSSLSASVGDRVTITCKASQLVSSAVAWYQQKPGKAPKLLIYWASTLHTGVPSRFSGSGSGTDFTLTISSLQPEDFATYYCQQHYRTPFTFGQGTKLEIKR",0.294,
"DVD3108 (bispecific antibody, IgG1) VH: EVQLVQSGAEVKKPGASVKVSCKASGYTFTTYGVSWVRQAPGQGLEWMGEIYPGNYNTYYNEKFRGRVTMTTDTSTSTAYMELRSLRSDDTAVYYCARWRTSYFSDYGYFDYWGQGTTVTVSSGGGGSGGGGSEVQLVQSGAEVKKPGASVKVSCKASGYTFANYGIIWVRQAPGQGLEWMGWINTYTGKPTYAQKFQGRVTMTTDTSTSTAYMELSSLRSEDTAVYYCARKLFTTMDVTDNAMDYWGQGTTVTVSS VL: DVVMTQSPLSLPVTLGQPASISCRSSQSLVHSHGNTYLHWYQQRPGQSPRLLIYTVSNRFSGVPDRFSGSGSGTDFTLKISRVEAEDVGVYYCSQSTHVPYTFGGGTKVEIKRGGSGGGGSGDIQMTQSPSSLSASVGDRVTITCRASQDISQYLNWYQQKPGKAPKLLIYYTSRLQSGVPSRFSGSGSGTDFTLTISSLQPEDFATYFCQQGNTWPPTFGQGTKLEIKR",0.183,
"DVD3103 (bispecific antibody, IgG1) VH: EVQLVQSGAEVKKPGASVKVSCKASGYTFANYGIIWVRQAPGQGLEWMGWINTYTGKPTYAQKFQGRVTMTTDTSTSTAYMELSSLRSEDTAVYYCARKLFTTMDVTDNAMDYWGQGTTVTVSSGGGGSGGGGSEVQLVESGGGLVQPGGSLRLSCAASGFTFSNYGVTWVRQAPGKGLEWVSMIWADGSTHYASSVKGRFTISRDNSKNTLYLQMNSLRAEDTAVYYCAREWQHGPVAYWGQGTLVTVSS VL: DIQMTQSPSSLSASVGDRVTITCRASQDISQYLNWYQQKPGKAPKLLIYYTSRLQSGVPSRFSGSGSGTDFTLTISSLQPEDFATYFCQQGNTWPPTFGQGTKLEIKRGGSGGGGSGDIQMTQSPSSLSASVGDRVTITCRASQLVSSAVAWYQQKPGKAPKLLIYWASARHTGVPSRFSGSGSGTDFTLTISSLQPEDFATYYCQQHYKTPFTFGQGTKLEIKR",,0.016
"DVD3109 (bispecific antibody, IgG1) VH: EVQLVQSGAEVKKPGASVKVSCKASGYTFTTYGVSWVRQAPGQGLEWMGEIYPGNYNTYYNEKFRGRVTMTTDTSTSTAYMELRSLRSDDTAVYYCARWRTSYFSDYGYFDYWGQGTTVTVSSASTKGPEVQLVQSGAEVKKPGASVKVSCKASGYTFANYGIIWVRQAPGQGLEWMGWINTYTGKPTYAQKFQGRVTMTTDTSTSTAYMELSSLRSEDTAVYYCARKLFTTMDVTDNAMDYWGQGTTVTVSS VL: DVVMTQSPLSLPVTLGQPASISCRSSQSLVHSHGNTYLHWYQQRPGQSPRLLIYTVSNRFSGVPDRFSGSGSGTDFTLKISRVEAEDVGVYYCSQSTHVPYTFGGGTKVEIKRTVAAPDIQMTQSPSSLSASVGDRVTITCRASQDISQYLNWYQQKPGKAPKLLIYYTSRLQSGVPSRFSGSGSGTDFTLTISSLQPEDFATYFCQQGNTWPPTFGQGTKLEIKR",0.731,
"DVD3104 (bispecific antibody, IgG1) VH: EVQLVQSGAEVKKPGASVKVSCKASGYTFANYGIIWVRQAPGQGLEWMGWINTYTGKPTYAQKFQGRVTMTTDTSTSTAYMELSSLRSEDTAVYYCARKLFTTMDVTDNAMDYWGQGTTVTVSSASTKGPEVQLVESGGGLVQPGGSLRLSCAASGFTFSNYGVTWVRQAPGKGLEWVSMIWADGSTHYASSVKGRFTISRDNSKNTLYLQMNSLRAEDTAVYYCAREWQHGPVAYWGQGTLVTVSS VL: DIQMTQSPSSLSASVGDRVTITCRASQDISQYLNWYQQKPGKAPKLLIYYTSRLQSGVPSRFSGSGSGTDFTLTISSLQPEDFATYFCQQGNTWPPTFGQGTKLEIKRTVAAPDIQMTQSPSSLSASVGDRVTITCRASQLVSSAVAWYQQKPGKAPKLLIYWASARHTGVPSRFSGSGSGTDFTLTISSLQPEDFATYYCQQHYKTPFTFGQGTKLEIKR",,0.033
"DVD3101 (bispecific antibody, IgG1) VH: EVQLVQSGAEVKKPGASVKVSCKASGYTFTTYGVSWVRQAPGQGLEWMGEIYPGNYNTYYNEKFRGRVTMTTDTSTSTAYMELRSLRSDDTAVYYCARWRTSYFSDYGYFDYWGQGTTVTVSSASTKGPEVQLVESGGGLVQPGGSLRLSCAASGFTFSNYGVEWVRQAPGKGLEWVSGIWADGSTHYADTVKSRFTISRDNSKNTLYLQMNSLRAEDTAVYYCAREWQHGPVAYWGQGTLVTVSS VL: DVVMTQSPLSLPVTLGQPASISCRSSQSLVHSHGNTYLHWYQQRPGQSPRLLIYTVSNRFSGVPDRFSGSGSGTDFTLKISRVEAEDVGVYYCSQSTHVPYTFGGGTKVEIKRTVAAPSVFIFPPDIQMTQSPSSLSASVGDRVTITCKASQLVSSAVAWYQQKPGKAPKLLIYWASTLHTGVPSRFSGSGSGTDFTLTISSLQPEDFATYYCQQHYRTPFTFGQGTKLEIKR",0.308,

# Results, then the binder that gave them:
C-Terminal VD huTNFα Neutralization Assay IC50 [nM],N-Terminal VD huTNFα Neutralization Assay IC50 [nM],Binder
0.065,,"DVD3118 (bispecific antibody, IgG1) VH: EVQLVQSGAEVKKPGASVKVSCKASGYTFTTYGVSWVRQAPGQGLEWMGEIYPGNYNTYYNEKFRGRVTMTTDTSTSTAYMELRSLRSDDTAVYYCARWRTSYFSDYGYFDYWGQGTTVTVSSGGGGSGGGGSEVQLVQSGAEVKKPGASVKVSCKASGYTFNNYGIIWVRQAPGQGLEWMGWINTYTGKPTYAQKFQGRVTMTTDTSTSTAYMELSSLRSEDTAVYYCARKLFNTVAVTDNAMDYWGQGTTVTVSS VL: DVVMTQSPLSLPVTLGQPASISCRSSQSLVHSHGNTYLHWYQQRPGQSPRLLIYTVSNRFSGVPDRFSGSGSGTDFTLKISRVEAEDVGVYYCSQSTHVPYTFGGGTKVEIKRGGSGGGGSGDIQMTQSPSSLSASVGDRVTITCRASQDIENYLNWYQQKPGKAPKLLIYYTSRLQSGVPSRFSGSGSGTDFTLTISSLQPEDFATYFCQQGNTQPPTFGQGTKLEIKR"
0.146,,"DVD3111 (bispecific antibody, IgG1) VH: EVQLVQSGAEVKKPGASVKVSCKASGYTFTTYGVSWVRQAPGQGLEWMGEIYPGNYNTYYNEKFRGRVTMTTDTSTSTAYMELRSLRSDDTAVYYCARWRTSYFSDYGYFDYWGQGTTVTVSSASTKGPEVQLVQSGAEVKKPGASVKVSCKASGYTFANYGIIWVRQAPGQGLEWMGWINTYTGKPTYAQKFQGRVTMTTDTSTSTAYMELSSLRSEDTAVYYCARKLFTTMDVTDNAMDYWGQGTTVTVSS VL: DVVMTQSPLSLPVTLGQPASISCRSSQSLVHSHGNTYLHWYQQRPGQSPRLLIYTVSNRFSGVPDRFSGSGSGTDFTLKISRVEAEDVGVYYCSQSTHVPYTFGGGTKVEIKRTVAAPSVFIFPPDIQMTQSPSSLSASVGDRVTITCRASQDISQYLNWYQQKPGKAPKLLIYYTSRLQSGVPSRFSGSGSGTDFTLTISSLQPEDFATYFCQQGNTWPPTFGQGTKLEIKR"
0.036,,"DVD3121 (bispecific antibody, IgG1) VH: EVQLVQSGAEVKKPGASVKVSCKASGYTFTTYGVSWVRQAPGQGLEWMGEIYPGNYNTYYNEKFRGRVTMTTDTSTSTAYMELRSLRSDDTAVYYCARWRTSYFSDYGYFDYWGQGTTVTVSSASTKGPEVQLVQSGAEVKKPGASVKVSCKASGYTFNNYGIIWVRQAPGQGLEWMGWINTYTGKPTYAQKFQGRVTMTTDTSTSTAYMELSSLRSEDTAVYYCARKLFNTVAVTDNAMDYWGQGTTVTVSS VL: DVVMTQSPLSLPVTLGQPASISCRSSQSLVHSHGNTYLHWYQQRPGQSPRLLIYTVSNRFSGVPDRFSGSGSGTDFTLKISRVEAEDVGVYYCSQSTHVPYTFGGGTKVEIKRTVAAPSVFIFPPDIQMTQSPSSLSASVGDRVTITCRASQDIENYLNWYQQKPGKAPKLLIYYTSRLQSGVPSRFSGSGSGTDFTLTISSLQPEDFATYFCQQGNTQPPTFGQGTKLEIKR"
0.387,,"DVD3112 (bispecific antibody, IgG1) VH: EVQLVQSGAEVKKPGASVKVSCKASGYTFTTYGVSWVRQAPGQGLEWMGEIYPGNYNTYYNEKFRGRVTMTTDTSTSTAYMELRSLRSDDTAVYYCARWRTSYFSDYGYFDYWGQGTTVTVSSASTKGPSVFPLAPEVQLVQSGAEVKKPGASVKVSCKASGYTFANYGIIWVRQAPGQGLEWMGWINTYTGKPTYAQKFQGRVTMTTDTSTSTAYMELSSLRSEDTAVYYCARKLFTTMDVTDNAMDYWGQGTTVTVSS VL: DVVMTQSPLSLPVTLGQPASISCRSSQSLVHSHGNTYLHWYQQRPGQSPRLLIYTVSNRFSGVPDRFSGSGSGTDFTLKISRVEAEDVGVYYCSQSTHVPYTFGGGTKVEIKRTVAAPDIQMTQSPSSLSASVGDRVTITCRASQDISQYLNWYQQKPGKAPKLLIYYTSRLQSGVPSRFSGSGSGTDFTLTISSLQPEDFATYFCQQGNTWPPTFGQGTKLEIKR"
0.163,,"DVD3119 (bispecific antibody, IgG1) VH: EVQLVQSGAEVKKPGASVKVSCKASGYTFTTYGVSWVRQAPGQGLEWMGEIYPGNYNTYYNEKFRGRVTMTTDTSTSTAYMELRSLRSDDTAVYYCARWRTSYFSDYGYFDYWGQGTTVTVSSASTKGPEVQLVQSGAEVKKPGASVKVSCKASGYTFNNYGIIWVRQAPGQGLEWMGWINTYTGKPTYAQKFQGRVTMTTDTSTSTAYMELSSLRSEDTAVYYCARKLFNTVAVTDNAMDYWGQGTTVTVSS VL: DVVMTQSPLSLPVTLGQPASISCRSSQSLVHSHGNTYLHWYQQRPGQSPRLLIYTVSNRFSGVPDRFSGSGSGTDFTLKISRVEAEDVGVYYCSQSTHVPYTFGGGTKVEIKRTVAAPDIQMTQSPSSLSASVGDRVTITCRASQDIENYLNWYQQKPGKAPKLLIYYTSRLQSGVPSRFSGSGSGTDFTLTISSLQPEDFATYFCQQGNTQPPTFGQGTKLEIKR"
,1.96,"DVD3117 (bispecific antibody, IgG1) VH: EVQLVQSGAEVKKPGASVKVSCKASGYTFNNYGIIWVRQAPGQGLEWMGWINTYTGKPTYAQKFQGRVTMTTDTSTSTAYMELSSLRSEDTAVYYCARKLFNTVAVTDNAMDYWGQGTTVTVSSASTKGPSVFPLAPEVQLVESGGGLVQPGGSLRLSCAASGFTFSNYGVTWVRQAPGKGLEWVSMIWADGSTHYASSVKGRFTISRDNSKNTLYLQMNSLRAEDTAVYYCAREWQHGPVAYWGQGTLVTVSS VL: DIQMTQSPSSLSASVGDRVTITCRASQDIENYLNWYQQKPGKAPKLLIYYTSRLQSGVPSRFSGSGSGTDFTLTISSLQPEDFATYFCQQGNTQPPTFGQGTKLEIKRTVAAPDIQMTQSPSSLSASVGDRVTITCRASQLVSSAVAWYQQKPGKAPKLLIYWASARHTGVPSRFSGSGSGTDFTLTISSLQPEDFATYYCQQHYKTPFTFGQGTKLEIKR"
